Measurements reported in patent US20200017592A1 (Regeneron, published 2020).

Assays:
[1] = target: T1, human IL-36R extracellular domain expressed with a C-terminal mouse IgG2a Fc tag (hIL-36R-mFc) (human; mouse, UniProt Q9HB29 20-337); experiment: SPR Biacore 4000, mAb captured on anti-hFc, 25C
T1 construct: not shown: mouse IgG2a Fc, E98-K330
T1 sequence (looked up): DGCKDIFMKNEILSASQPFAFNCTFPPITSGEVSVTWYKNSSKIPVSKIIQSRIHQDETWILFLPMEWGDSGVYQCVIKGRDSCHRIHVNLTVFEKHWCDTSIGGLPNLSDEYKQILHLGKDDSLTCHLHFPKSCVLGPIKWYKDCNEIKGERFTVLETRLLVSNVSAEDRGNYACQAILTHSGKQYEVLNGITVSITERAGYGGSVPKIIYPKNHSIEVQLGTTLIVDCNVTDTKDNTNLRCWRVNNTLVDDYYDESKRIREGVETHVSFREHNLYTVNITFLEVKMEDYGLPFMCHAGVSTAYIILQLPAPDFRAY
Experimental: (§1) Equilibrium dissociation constants (KD values) for IL-36R binding to purified anti-IL-36R antibodies were determined using a real-time surface plasmon resonance biosensor using a Biacore 4000 instrument. The Biacore sensor surface was first derivatized by amine coupling with a monoclonal mouse anti-human Fc antibody (GE, # BR-1008-39) to capture anti-IL-36R monoclonal antibodies. All binding studies were performed in 0.01 M Hepes pH 7.4, 0.15 M NaCl, 3 mM EDTA, and 0.05% v/v Surfactant Tween-20 (HBS-ET running buffer) at 25° C. and 37° C. Different concentrations of IL-36R reagents, human IL-36R extracellular domain expressed with a C-terminal myc-myc-hexahistidine tag (hIL-36R-MMH), Macaca fascicularis IL-36R extracellular domain expressed with a C-terminal myc-myc-hexahistidine tag (mfIL-36R-MMH: mROR1 signal sequence (M1-A29). Macaca fascicularis IL36R_ecto domain (D20-A336).mycmycHis6), human IL-36R extracellular domain expressed with a C-terminal mouse IgG2a Fc tag (hIL-36R-mFc: mROR1 signal sequence (M1-A29)-human IL36R (D20-Y337)-mouse IgG2aFc (E98-K330)) or an in-line fusion protein of human IL-36R extracellular domain and IL1RAcP extracellular domain expressed with mouse IgG2a Fc tag (hIL-36R-Trap-mFc: mROR1 signal sequence (M1-A29)-human IL36R ecto domain (D20-Y337)-human IL1RacP ecto domain(S21-E359)-mouse IgG2aFc) in HBS-ET running buffer (ranging from 100 nM to 3.7 nM, 3-fold dilutions) were injected over the anti-IL-36R antibody captured surface for 4 minutes at a flow rate of 30 μL/minute and their dissociation in HBS-ET running buffer was monitored for 10 minutes. Kinetic association rate constant (kₐ) and dissociation rate constant (kd) were determined by fitting the real-time sensorgrams to a 1:1 binding model using Scrubber 2.0c curve fitting software. Binding dissociation equilibrium constants (KD) and dissociative half-lives (t_{1/2}) were calculated from the kinetic rate constants as: […]

[2] = target: T2, in-line fusion protein of human IL-36R extracellular domain and IL1RAcP extracellular domain expressed with … (human; mouse, UniProt Q9HB29 20-337; Q9NPH3 21-359, limits assumed); experiment: SPR Biacore 4000, mAb captured on anti-hFc, 25C
T2 construct: not shown: mouse IgG2a Fc
T2 sequence (looked up): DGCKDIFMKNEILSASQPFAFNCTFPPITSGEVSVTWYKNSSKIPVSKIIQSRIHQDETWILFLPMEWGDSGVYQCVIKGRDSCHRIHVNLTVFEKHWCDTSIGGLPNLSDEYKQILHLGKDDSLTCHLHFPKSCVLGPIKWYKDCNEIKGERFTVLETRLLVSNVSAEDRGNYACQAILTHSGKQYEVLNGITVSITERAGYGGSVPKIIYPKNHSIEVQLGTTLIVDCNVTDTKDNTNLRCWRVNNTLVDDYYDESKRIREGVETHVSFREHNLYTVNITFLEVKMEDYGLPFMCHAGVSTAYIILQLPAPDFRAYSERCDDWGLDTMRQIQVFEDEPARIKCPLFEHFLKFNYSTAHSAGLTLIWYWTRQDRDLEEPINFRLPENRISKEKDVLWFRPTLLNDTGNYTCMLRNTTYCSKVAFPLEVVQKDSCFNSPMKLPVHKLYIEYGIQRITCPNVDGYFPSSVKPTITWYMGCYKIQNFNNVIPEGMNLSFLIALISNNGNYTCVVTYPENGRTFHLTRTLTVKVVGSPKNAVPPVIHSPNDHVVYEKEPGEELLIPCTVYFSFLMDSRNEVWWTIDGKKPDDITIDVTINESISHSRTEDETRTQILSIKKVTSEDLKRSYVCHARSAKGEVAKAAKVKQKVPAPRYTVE
Experimental: as §1

[3] = target: T1, human IL-36R extracellular domain …; experiment: SPR Biacore 4000, mAb captured on anti-hFc, 37C
Experimental: as §1

[4] = target: T2, in-line fusion protein of human IL-36R …; experiment: SPR Biacore 4000, mAb captured on anti-hFc, 37C
Experimental: as §1

[5] = target: T3, human IL-36R extracellular domain expressed with a C-terminal myc-myc-hexahistidine tag (hIL-36R-MMH) (human, UniProt Q9HB29 20-337); experiment: SPR Biacore T200, mAb captured on anti-hFc, 25C, PBS-T pH 6.0 running buffer
T3 construct: also called Human IL-36R-MMH; REGN2105
T3 sequence (Q9HB29 other isoform, or with tags, fused parts or gaps limits assumed): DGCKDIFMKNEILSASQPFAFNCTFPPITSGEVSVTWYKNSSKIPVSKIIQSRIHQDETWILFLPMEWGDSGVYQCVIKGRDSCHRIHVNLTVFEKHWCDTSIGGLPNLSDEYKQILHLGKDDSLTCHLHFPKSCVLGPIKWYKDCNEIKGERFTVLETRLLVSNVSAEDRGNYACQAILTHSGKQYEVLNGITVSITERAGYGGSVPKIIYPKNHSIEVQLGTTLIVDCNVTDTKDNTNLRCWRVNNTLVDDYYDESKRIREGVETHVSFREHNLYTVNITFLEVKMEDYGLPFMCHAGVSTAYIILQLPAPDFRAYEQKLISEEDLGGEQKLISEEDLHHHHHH
Experimental: (§2) Additional binding experiments were performed to determine the effect of pH on the rate of dissociation of IL-36R bound to purified anti-IL-36R antibodies, which was determined using a real-time surface plasmon resonance biosensor using a Biacore T200 instrument. The Biacore sensor surface was first derivatized by amine coupling with a monoclonal mouse anti-human Fc antibody (GE, # BR-1008-39) to capture anti-IL-36R antibodies. […] Different concentrations of hIL-36R-MMH and mfIL-36R-MMH prepared in PBS-T, pH7.4 buffer (ranging from 100 nM to 11.11 nM, 3-fold dilutions) were injected over the anti-IL-36R antibody captured surface for 4 minutes at a flow rate of 50 μL/minute and their dissociation in two running buffers, PBS-T, pH7.4 and PBS-T, pH 6.0, was monitored for 10 minutes. All of these binding kinetics experiments were performed at 25° C. and 37° C. Kinetic dissociation constant (kd) were determined by fitting the real-time sensorgrams to a 1:1 binding model using Scrubber 2.0c curve fitting software. Binding dissociative half-lives (t_{1/2}) were calculated from kd as: […]

[6] = target: T3, human IL-36R extracellular domain …; experiment: SPR Biacore T200, mAb captured on anti-hFc, 25C, PBS-T pH 7.4 running buffer
Experimental: as §2

[7] = target: T3, human IL-36R extracellular domain …; experiment: SPR Biacore T200, mAb captured on anti-hFc, 37C, PBS-T pH 6.0 running buffer
Experimental: as §2

[8] = target: T3, human IL-36R extracellular domain …; experiment: SPR Biacore T200, mAb captured on anti-hFc, 37C, PBS-T pH 7.4 running buffer
Experimental: as §2

B1: H4H14699P2 (antibody, human IgG4 S228P, kappa, V domains shown)
VH: EVQLVESGGGLVQPGRSLRLSCAASGFTFDDYAIHWVRQAPGKGLEWVSVISWNSDIIGYADSVKGRFTVSRDNAKNSLYLQMNSLRTEDTALYYCAKGYNWNFFDYWGQGTLVTVSS
VL: EIVLTQSPATLSLSPGERATLSCRASQSVSSYLAWYQQKPGQAPRLLIYNAANRATDIPARFSGSGSGTDFTLTISSLEPEDFAVYYCQQRSNWPLTFGGGTKVEIKR
notes: Fully human anti-IL-36R antibody
- 100 nM hIL-36R-mFc Bound (RU) [1]: 150 RU
- Kd [1]: 0.359 nM
- koff [1]: 0.000203 s⁻¹
- kon [1]: 564000 M⁻¹ s⁻¹
- t1/2 [1]: 57 min
- 100 nM hIL-36R-Trap-mFc Bound (RU) [2]: 188 RU
- Kd [2]: 0.458 nM
- koff [2]: 0.000228 s⁻¹
- kon [2]: 498000 M⁻¹ s⁻¹
- t1/2 [2]: 51 min
- 100 nM hIL-36R-mFc Bound (RU) [3]: 186 RU
- Kd [3]: 0.767 nM
- koff [3]: 0.000456 s⁻¹
- kon [3]: 594000 M⁻¹ s⁻¹
- t1/2 [3]: 25 min
- 100 nM hIL-36R-Trap-mFc Bound (RU) [4]: 229 RU
- Kd [4]: 1.06 nM
- koff [4]: 0.000513 s⁻¹
- kon [4]: 484000 M⁻¹ s⁻¹
- t1/2 [4]: 23 min
- 100 nM Human IL-36R-MMH Bound (RU) [5]: 79 RU
- koff [5]: 0.00293 s⁻¹
- t1/2 [5]: 4 min
- 100 nM Human IL-36R-MMH Bound (RU) [6]: 84 RU
- koff [6]: 0.00193 s⁻¹
- t1/2 [6]: 6 min
- 100 nM hIL-36R-MMH Bound (RU) [7]: 83 RU
- koff [7]: 0.00581 s⁻¹
- t1/2 [7]: 2 min
- 100 nM hIL-36R-MMH Bound (RU) [8]: 96 RU
- koff [8]: 0.00415 s⁻¹
- t1/2 [8]: 3 min

B2: H4H14700P2 (antibody, human IgG4 S228P, kappa, V domains shown)
VH: EVQLVESGGGLVQPGRSLRLSCAASGFTFDDYAMHWVRQTPGKGLEWVSVISWNSDVIAYSDSVKGRFTISRDNAKNSLYLQMNSLGTEDTALYYCAKGHNWNFFDYWGQGTLVTVSS
VL: EIVLTQSPATLSLSPGERATLSCRASQSVSSYLAWYQQKPGQAPRLLIYNVANRATDIPARFSGSGSGTDFTLTISGLEPEDFAVYFCQQRSNWPLTFGGGTKVEIKR
notes: as for B1
- 100 nM hIL-36R-mFc Bound (RU) [1]: 128 RU
- Kd [1]: 0.233 nM
- koff [1]: 0.00012 s⁻¹
- kon [1]: 517000 M⁻¹ s⁻¹
- t1/2 [1]: 96 min
- 100 nM hIL-36R-Trap-mFc Bound (RU) [2]: 157 RU
- Kd [2]: 0.283 nM
- koff [2]: 0.000125 s⁻¹
- kon [2]: 442000 M⁻¹ s⁻¹
- t1/2 [2]: 92 min
- 100 nM hIL-36R-mFc Bound (RU) [3]: 174 RU
- Kd [3]: 0.39 nM
- koff [3]: 0.000209 s⁻¹
- kon [3]: 535000 M⁻¹ s⁻¹
- t1/2 [3]: 55 min
- 100 nM hIL-36R-Trap-mFc Bound (RU) [4]: 216 RU
- Kd [4]: 0.555 nM
- koff [4]: 0.000253 s⁻¹
- kon [4]: 455000 M⁻¹ s⁻¹
- t1/2 [4]: 46 min
- 100 nM Human IL-36R-MMH Bound (RU) [5]: 120 RU
- koff [5]: 0.00172 s⁻¹
- t1/2 [5]: 7 min
- 100 nM Human IL-36R-MMH Bound (RU) [6]: 128 RU
- koff [6]: 0.000795 s⁻¹
- t1/2 [6]: 15 min
- 100 nM hIL-36R-MMH Bound (RU) [7]: 144 RU
- koff [7]: 0.0035 s⁻¹
- t1/2 [7]: 3 min
- 100 nM hIL-36R-MMH Bound (RU) [8]: 153 RU
- koff [8]: 0.00169 s⁻¹
- t1/2 [8]: 7 min
